Results as given in US5663314.

Columns and labels:
[1] = target: T1, Band-3 peptide
T1 sequence (peptide): MEELQDDYEDDMEERR

[2] = target: Casein
[3] = target: Denatured enolase
[4] = target: T2, ETE peptide
T2 sequence (peptide): RRREEETEEE

[5] = target: Histones
[6] = target: Kemptide
[7] = target: T3, RR-SRC peptide
T3 sequence (peptide): RRLIEDAEYAARG

[8] = target: Recombinant ERK2 expressed in E. coli (Rattus norvegicus (Rat)) (UniProt P63086)
[9] = target: Ribosomal S6 protein
[10] = target: T4, S6 peptide
T4 sequence (peptide): RRLSSLRA

[11] = target: T5, Syntide-2
T5 sequence (peptide): PLARTLSVAGLPGKK

[12] = target: T6, TEY peptide
T6 sequence (peptide): PEHDHTGFLTEYVATRWYR

[13] = target: bovine myelin basic protein (bovine) (UniProt P02687)
bovine myelin basic protein (bovine), sequence (P02687 whole entry): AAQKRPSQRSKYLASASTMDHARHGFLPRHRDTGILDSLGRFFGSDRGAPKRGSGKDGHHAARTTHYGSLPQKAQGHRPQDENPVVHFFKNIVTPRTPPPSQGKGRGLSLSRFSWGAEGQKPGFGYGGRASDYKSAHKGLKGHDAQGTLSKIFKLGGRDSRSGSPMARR

Substance “MAPK activator 1 (MAPKK1a), 46 kDa polypeptide purified from EGF-stimulated A431 cells (enzyme)” has a Phosphorylation [1] of under 0.005 nmol/min/mg, a Phosphorylation [2] of under 0.005 nmol/min/mg and a Phosphorylation [3] of under 0.005 nmol/min/mg. The Phosphorylation [4] was under 0.005 nmol/min/mg, the Phosphorylation [5] was 0.02 nmol/min/mg and the Phosphorylation [6] was under 0.005 nmol/min/mg. The Phosphorylation [7] was under 0.005 nmol/min/mg, the Phosphorylation [8] was 150 nmol/min/mg and the Phosphorylation [9] was under 0.005 nmol/min/mg. The Phosphorylation [10] was under 0.005 nmol/min/mg, the Phosphorylation [11] was under 0.005 nmol/min/mg and the Phosphorylation [12] was 0.04 nmol/min/mg. The Phosphorylation [13] was 0.1 nmol/min/mg.
